Assay results as given in patent US20210130491A1 (ONCOTAG DIAGNOSTICS, published 2021).

Key:
Assay in all cases: ELISA, protein coated at 1 ug/ml
34S-AIMP2 = target: T1, 34S-AIMP2 (UniProt Q13155 1-320)
T1 construct: not shown: '34S' tag or fusion partner
T1 sequence (looked up): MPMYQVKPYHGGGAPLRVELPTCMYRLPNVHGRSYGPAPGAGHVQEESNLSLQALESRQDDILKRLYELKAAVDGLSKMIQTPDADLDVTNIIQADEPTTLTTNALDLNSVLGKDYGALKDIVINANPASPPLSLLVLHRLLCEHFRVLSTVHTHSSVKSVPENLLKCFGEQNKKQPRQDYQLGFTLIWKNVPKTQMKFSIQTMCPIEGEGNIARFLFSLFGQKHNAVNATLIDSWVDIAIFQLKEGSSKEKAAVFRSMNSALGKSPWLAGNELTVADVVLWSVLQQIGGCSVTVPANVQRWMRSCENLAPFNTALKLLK
Description: (§1) Each well of 96 well plates (Corning 3690 flat bottom, 96-well half-area plates) was coated with different kinds of ARS proteins (His-MRS, MRS full, DX2 tag free, 34S-DX2, 34S-AIMP2, His-CRS, His-AIMP1, His-GRS, His-WRS, His-KRS) at the concentration of 1 μg/ml. 1E8 and 8A12 antibodies at a concentration of 500 ng/ml were added onto the 96 well plates coated with ARS proteins and allowed to react for 1 hour. Thereafter, HRP-conjugated anti-mouse IgG secondary antibody was added and reacted for 1 hour. ELISA was performed and absorbance was measured at 450 nm. TMB (3,3′,5,5′-tetramethylbenzidine) was used as substrate.

His-GRS = target: T2, His-GRS (UniProt P41250 55-739)
T2 construct: not shown: His tag
T2 sequence (looked up): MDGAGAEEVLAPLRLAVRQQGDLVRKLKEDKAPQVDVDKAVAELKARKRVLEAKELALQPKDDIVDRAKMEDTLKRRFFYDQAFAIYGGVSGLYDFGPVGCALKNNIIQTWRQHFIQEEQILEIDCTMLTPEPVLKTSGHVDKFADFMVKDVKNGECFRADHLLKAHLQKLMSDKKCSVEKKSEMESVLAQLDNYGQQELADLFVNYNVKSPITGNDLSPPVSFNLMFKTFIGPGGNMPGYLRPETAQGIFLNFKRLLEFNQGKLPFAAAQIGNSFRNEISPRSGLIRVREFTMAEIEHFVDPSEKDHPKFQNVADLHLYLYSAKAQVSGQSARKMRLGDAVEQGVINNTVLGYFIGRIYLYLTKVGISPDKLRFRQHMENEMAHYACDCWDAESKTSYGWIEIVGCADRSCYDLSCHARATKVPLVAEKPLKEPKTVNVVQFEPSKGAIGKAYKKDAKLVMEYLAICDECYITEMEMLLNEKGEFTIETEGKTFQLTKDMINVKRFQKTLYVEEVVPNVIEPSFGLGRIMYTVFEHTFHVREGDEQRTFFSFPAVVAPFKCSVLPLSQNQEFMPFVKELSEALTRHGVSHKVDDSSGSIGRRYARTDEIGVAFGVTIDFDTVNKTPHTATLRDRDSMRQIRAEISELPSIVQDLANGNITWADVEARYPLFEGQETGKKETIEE
Description: as §1

His-WRS = target: T3, His-WRS (UniProt P23381 1-471, limits assumed)
T3 construct: not shown: His tag
T3 sequence (looked up): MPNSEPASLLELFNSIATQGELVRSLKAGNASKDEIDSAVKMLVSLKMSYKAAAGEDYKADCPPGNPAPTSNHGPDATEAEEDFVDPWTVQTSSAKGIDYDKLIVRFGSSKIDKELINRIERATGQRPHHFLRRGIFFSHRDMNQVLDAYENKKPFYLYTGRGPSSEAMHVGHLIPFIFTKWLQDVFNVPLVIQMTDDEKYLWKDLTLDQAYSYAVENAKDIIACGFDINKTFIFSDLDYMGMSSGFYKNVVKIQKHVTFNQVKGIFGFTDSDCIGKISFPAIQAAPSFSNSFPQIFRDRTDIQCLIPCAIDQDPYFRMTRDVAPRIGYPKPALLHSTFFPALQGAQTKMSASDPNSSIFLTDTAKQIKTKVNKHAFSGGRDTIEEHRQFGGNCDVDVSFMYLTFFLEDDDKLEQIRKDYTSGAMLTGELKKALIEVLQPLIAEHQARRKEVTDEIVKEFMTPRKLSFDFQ
Description: as §1

His-AIMP1 = target: T4, His-AIMP1 (UniProt Q12904 1-312, limits assumed)
T4 construct: not shown: His tag
T4 sequence (looked up): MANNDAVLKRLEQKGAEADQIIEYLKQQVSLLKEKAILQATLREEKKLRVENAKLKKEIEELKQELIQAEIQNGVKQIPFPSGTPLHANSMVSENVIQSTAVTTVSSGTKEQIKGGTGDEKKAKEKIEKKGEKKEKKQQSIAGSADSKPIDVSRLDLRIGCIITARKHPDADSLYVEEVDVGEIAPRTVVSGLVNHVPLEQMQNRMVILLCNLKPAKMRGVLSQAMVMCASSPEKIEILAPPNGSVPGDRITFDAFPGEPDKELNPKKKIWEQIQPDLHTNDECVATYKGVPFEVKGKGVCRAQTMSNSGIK
Description: as §1

His-KRS = target: T5, His-KRS (UniProt Q15046 1-597)
T5 construct: not shown: His tag
T5 sequence (Q15046 whole entry): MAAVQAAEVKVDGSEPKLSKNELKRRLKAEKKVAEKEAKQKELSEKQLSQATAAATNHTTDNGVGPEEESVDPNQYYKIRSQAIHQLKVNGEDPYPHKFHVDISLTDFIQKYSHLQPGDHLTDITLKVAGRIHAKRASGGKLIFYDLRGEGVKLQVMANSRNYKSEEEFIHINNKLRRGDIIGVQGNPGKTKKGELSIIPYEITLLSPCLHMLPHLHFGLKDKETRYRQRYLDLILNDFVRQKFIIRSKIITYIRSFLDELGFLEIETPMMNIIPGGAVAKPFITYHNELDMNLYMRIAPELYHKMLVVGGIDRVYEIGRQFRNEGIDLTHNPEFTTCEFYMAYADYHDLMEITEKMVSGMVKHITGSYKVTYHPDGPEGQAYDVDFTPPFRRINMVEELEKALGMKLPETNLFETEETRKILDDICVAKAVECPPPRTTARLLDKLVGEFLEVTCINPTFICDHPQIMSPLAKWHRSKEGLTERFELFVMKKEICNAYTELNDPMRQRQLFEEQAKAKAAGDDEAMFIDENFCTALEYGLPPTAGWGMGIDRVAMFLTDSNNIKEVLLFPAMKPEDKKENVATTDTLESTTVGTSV
Description: as §1

His-CRS = target: T6, His-CRS (UniProt P49589 1-748)
T6 construct: not shown: His tag
T6 sequence (looked up): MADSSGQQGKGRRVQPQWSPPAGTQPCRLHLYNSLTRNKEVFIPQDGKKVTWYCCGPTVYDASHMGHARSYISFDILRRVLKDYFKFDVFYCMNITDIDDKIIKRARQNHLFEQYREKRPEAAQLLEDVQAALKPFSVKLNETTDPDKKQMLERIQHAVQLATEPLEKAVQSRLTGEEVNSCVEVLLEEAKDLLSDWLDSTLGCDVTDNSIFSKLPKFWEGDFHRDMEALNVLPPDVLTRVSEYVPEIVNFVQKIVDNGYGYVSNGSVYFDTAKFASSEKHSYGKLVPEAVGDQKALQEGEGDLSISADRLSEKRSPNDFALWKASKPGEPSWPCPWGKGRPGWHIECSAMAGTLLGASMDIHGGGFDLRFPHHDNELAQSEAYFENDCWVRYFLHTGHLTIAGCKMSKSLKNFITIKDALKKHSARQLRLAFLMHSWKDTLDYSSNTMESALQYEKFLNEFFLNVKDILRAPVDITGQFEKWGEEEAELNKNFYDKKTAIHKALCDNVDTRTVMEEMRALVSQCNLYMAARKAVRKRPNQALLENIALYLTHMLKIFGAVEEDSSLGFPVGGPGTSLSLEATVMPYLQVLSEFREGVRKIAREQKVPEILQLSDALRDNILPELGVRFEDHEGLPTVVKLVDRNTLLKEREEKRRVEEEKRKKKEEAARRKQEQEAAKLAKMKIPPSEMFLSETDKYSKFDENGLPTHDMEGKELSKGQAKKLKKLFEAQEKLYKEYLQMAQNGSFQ
Description: as §1

Measured: binding result

B1: 8A12 antibody (8A12 IgG) (antibody, V domains shown)
VH: DVKLQESGPGLVKPSQSLSLTCTVTGYSITSEYAWTWIRQFPGNKLEWMGYINYNGNTNLNPSLKSRISIIRDTSKNQFFLQLNSVTTEDTATYYCARSLWPRGWFAYWGQGTLVTVSA
VL: DIQMTQSPSSMYASLGERVTITCKASQDINSYLSWFQQKPGKSPKTLMYRANRLVDGVPSRFSGSGSGQDYSLTISSLEYEDMGIYYCLQYDEFPRTFGGGTKLEIKA
notes: Mouse monoclonal from hybridoma clone 8A12; also called 8Al2; anti-MRS antibody (8A12)
no binding (tested: 500 ng/ml): all assays above

B2: 1E8 antibody (1E8 IgG) (antibody, V domains shown)
VH: DVKLQESGPGLVNPSQSLSLTCTVTGYSITSDYAWNWIRQFPGNKLEWMGYISYSGRTSYKSSLKSRISITRDTSKNQFFLELNSVTTEDTATYYCARDYGNFVGYFDVWGAGTTVTVSS
VL: DIVMTQSPSSLAVSVGEKVTMSCKSSQSLLYSSNQKNYLAWYQQKPGQSPKLLIYWASTRESGVPDRFTGSGSGTEFTLTISSVKAEDLAVYYCQQYYSYPTFGGGTKLEIKA
notes: Mouse monoclonal from hybridoma clone 1E8; also called IE8; anti-MRS antibody (1E8)
no binding (tested: 500 ng/ml): all assays above
